Among the data in patent publication US20170051047A1 are Kd, koff and kon values, retold here.

Read-outs that look alike come from different tables or passages of the source.

Assay [1] has as its target T1, Clostridium difficile toxin A (whole toxin A) (Clostridium difficile), P16154. The conditions noted are these: remark: other sources report otherwise.
In assay [2] the target is T1, Clostridium difficile toxin A (whole …). The conditions noted are these: remark: other sources report otherwise. The source holds these as a separate data set.

One may read the Kd as the equilibrium constant for the complex coming apart. Higher therefore signals weaker binding. For orientation: koff means a measure of how fast the partners let go of each other. As a reminder, the kon is a measure of how fast the partners come together. Read a low kon as slower complex formation.

B1: CAN20G2 (antibody, V domains shown)
VH: QIQLVQSGPEVKKPGETVKISCKASGYTFTNQGMNWVKQAPGKGLKWMGWINTNTGEPTYTEEFKGRFAFSLETSASTAYLQINNLKNEDTATYFCYVNYDYYTMDFWGQGTSVTVSS
VL: QVVLTQSPAIMSASLGDRVTMTCTASSSVISTYLHWYQQKPGSSPKLWIYSTSTLASGVPPRFSGSGSGTSYSLTISSMEAEDAATYYCLQYHRSPRTFGGGTKLEIK
In assay [1], B1 yielded a dissociation constant Kd of 0.166 nM, a koff of 1.8e-05 s⁻¹ and an on-rate constant (kon) of 108000 M⁻¹ s⁻¹. In assay [2], this molecule had a dissociation constant (Kd) of 0.00419 nM, an off-rate (koff) of 4.35e-07 s⁻¹ and an on-rate (kon) of 104000 M⁻¹ s⁻¹.
